This assay concerns the target DPP9, short isoform (DPP9S), co-expressed with CARD8 for cryo-EM (human), Q86TI2. Briefly: cryo-EM structure. The following applies: remark: other sources report otherwise.

B1: DPP9, short isoform (DPP9S), co-expressed with CARD8 for cryo-EM, Q86TI2-1 1-863 (enzyme)
chain: MATTGTPTADRGDAAATDDPAARFQVQKHSWDGLRSIIHGSRKYSGLIVNKAPHDFQFVQKTDESGPHSHRLYYLGMPYGSRENSLLYSEIPKKVRKEALLLLSWKQMLDHFQATPHHGVYSREEELLRERKRLGVFGITSYDFHSESGLFLFQASNSLFHCRDGGKNGFMVSPMKPLEIKTQCSGPRMDPKICPADPAFFSFINNSDLWVANIETGEERRLTFCHQGLSNVLDDPKSAGVATFVIQEEFDRFTGYWWCPTASWEGSEGLKTLRILYEEVDESEVEVIHVPSPALEERKTDSYRYPRTGSKNPKIALKLAEFQTDSQGKIVSTQEKELVQPFSSLFPKVEYIARAGWTRDGKYAWAMFLDRPQQWLQLVLLPPALFIPSTENEEQRLASARAVPRNVQPYVVYEEVTNVWINVHDIFYPFPQSEGEDELCFLRANECKTGFCHLYKVTAVLKSQGYDWSEPFSPGEDEFKCPIKEEIALTSGEWEVLARHGSKIWVNEETKLVYFQGTKDTPLEHHLYVVSYEAAGEIVRLTTPGFSHSCSMSQNFDMFVSHYSSVSTPPCVHVYKLSGPDDDPLHKQPRFWASMMEAASCPPDYVPPEIFHFHTRSDVRLYGMIYKPHALQPGKKHPTVLFVYGGPQVQLVNNSFKGIKYLRLNTLASLGYAVVVIDGRGSCQRGLRFEGALKNQMGQVEIEDQVEGLQFVAEKYGFIDLSRVAIHGWSYGGFLSLMGLIHKPQVFKVAIAGAPVTVWMAYDTGYTERYMDVPENNQHGYEAGSVALHVEKLPNEPNRLLILHGFLDENVHFFHTNFLVSQLIRAGKPYQLQIYPNERHSIRCPESGEHYEVTLLHFLQEYL
As to B1, the stoichiometry N (as a rule, the number of molecules, sites or subunits per partner or assembly) stood at 2.

(Values after article doi:10.1101/2021.01.13.426575.)
